Biological target: tyrosine kinase receptor MET on HeLa cells (UniProt P08581)
Sequence (P08581 25-1390 limits assumed): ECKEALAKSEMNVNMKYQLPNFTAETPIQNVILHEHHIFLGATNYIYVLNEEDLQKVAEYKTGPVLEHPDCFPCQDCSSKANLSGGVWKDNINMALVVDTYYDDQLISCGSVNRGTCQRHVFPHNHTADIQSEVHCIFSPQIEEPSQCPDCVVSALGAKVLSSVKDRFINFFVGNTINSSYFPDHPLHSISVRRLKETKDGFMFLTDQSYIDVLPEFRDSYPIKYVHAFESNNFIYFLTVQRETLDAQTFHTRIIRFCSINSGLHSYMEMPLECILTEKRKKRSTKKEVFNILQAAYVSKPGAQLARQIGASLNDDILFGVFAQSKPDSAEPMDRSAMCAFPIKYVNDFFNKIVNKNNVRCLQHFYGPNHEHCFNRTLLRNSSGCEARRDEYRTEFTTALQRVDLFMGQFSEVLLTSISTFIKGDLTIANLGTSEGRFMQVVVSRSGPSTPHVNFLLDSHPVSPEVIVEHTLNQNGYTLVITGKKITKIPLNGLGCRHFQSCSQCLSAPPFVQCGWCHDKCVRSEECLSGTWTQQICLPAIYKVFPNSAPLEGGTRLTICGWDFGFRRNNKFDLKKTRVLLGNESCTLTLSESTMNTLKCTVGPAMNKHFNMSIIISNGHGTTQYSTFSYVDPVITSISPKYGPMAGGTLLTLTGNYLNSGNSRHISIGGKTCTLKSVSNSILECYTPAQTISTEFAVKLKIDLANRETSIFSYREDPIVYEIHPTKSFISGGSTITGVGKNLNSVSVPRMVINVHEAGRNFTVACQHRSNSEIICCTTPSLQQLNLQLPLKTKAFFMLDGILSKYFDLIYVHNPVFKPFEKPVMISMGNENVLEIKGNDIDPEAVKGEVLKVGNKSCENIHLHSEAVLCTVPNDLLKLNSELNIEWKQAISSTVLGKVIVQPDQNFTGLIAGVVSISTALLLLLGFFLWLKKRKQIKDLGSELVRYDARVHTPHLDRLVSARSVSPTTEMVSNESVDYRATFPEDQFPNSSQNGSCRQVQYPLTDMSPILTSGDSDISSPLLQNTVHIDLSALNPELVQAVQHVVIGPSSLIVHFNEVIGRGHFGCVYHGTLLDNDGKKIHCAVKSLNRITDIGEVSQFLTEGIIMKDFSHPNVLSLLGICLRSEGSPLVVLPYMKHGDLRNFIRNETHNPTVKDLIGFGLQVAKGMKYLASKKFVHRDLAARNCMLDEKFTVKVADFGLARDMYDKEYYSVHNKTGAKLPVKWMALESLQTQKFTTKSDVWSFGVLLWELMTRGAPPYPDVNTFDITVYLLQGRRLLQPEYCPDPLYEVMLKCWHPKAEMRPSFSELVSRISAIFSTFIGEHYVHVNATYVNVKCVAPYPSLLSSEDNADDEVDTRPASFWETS

Hepatocyte growth factor/scatter factor (HGF/SF) (from UniProt P14210 32-728) (ligand)
EC50 (read off the curve), Akt phosphorylation (P-AKT) [P-AKT]: 0.03 nM
EC50 (read off the curve), ERK phosphorylation (P-ERK) [P-ERK]: 0.02 nM

Source: US20170369545A1
